According to patent US6355610B2 (priority 1998, dated 2002):
Entries after “also recorded” stand apart in the source; their conditions may differ. Ends that are not written are not given here.

What was measured:
35S-HaPrPsen = 35S-HaPrPsen (Mesocricetus auratus, UniProt P04273); format: biochemical, hamster
[1] = biological target: hamster PrP conversion reaction (PrPsen to PrPres) (Mesocricetus auratus, UniProt P04273); test: biochemical; parameters: species or system Syrian golden hamster

Aβ1-40
peptide induced aggregation of 35S-HaPrPsen (35S-HaPrPsen): caused aggregation and pelleting of 35S-HaPrPsen | inhibition of the conversion reaction (in words) [1]: gave no inhibition of conversion; also recorded: unable to inhibit the PrPsen to PrPres conversion at all concentrations tested

GAVVGGLGGYMLGSAMSR [P119-130]
IC50 [1]: < 100 µM
